Patent publication US9872922B2, “Anti-EFNA4 antibody-drug conjugates” (PFIZER, INC., priority 2013, dated 2018)

T1: human Ephrin-A4 (Homo sapiens, UniProt P52798)
T1 construct: purchased
T1 sequence (P52798 26-170): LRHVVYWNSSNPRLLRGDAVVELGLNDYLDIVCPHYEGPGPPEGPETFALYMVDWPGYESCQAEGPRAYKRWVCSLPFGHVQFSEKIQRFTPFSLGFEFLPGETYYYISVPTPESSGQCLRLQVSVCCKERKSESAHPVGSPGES

T2: human EFNA4 (Homo sapiens, UniProt P52798)
T2 sequence (P52798 26-170): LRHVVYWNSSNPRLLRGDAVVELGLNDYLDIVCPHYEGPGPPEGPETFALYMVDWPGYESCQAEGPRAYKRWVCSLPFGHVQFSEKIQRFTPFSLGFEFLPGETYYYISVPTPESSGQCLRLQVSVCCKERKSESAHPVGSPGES


How the values were obtained:
human Ephrin-A4 = target: T1, human Ephrin-A4; experiment: SPR steady state affinity of Eph receptors for Ephrin-A4; type: binding; conditions: for Kd: SPR BIAcore 2000, steady state affinity fit, captured Eph receptor, monomeric human Ephrin-A4 as analyte; for rank of affinity for Ephrin-A4 among nine Eph receptors: steady state affinity
Protocol: The properties of Ephrin-A4 binding to Eph receptors were further analyzed. Since anti-EFNA4 antibodies bind to Ephrin-A4 while the ligand is engaged with its Eph receptor, the affinity between these two macromolecules was determined. The affinities of commercially available Eph receptors and Ephrin-A4 were directly compared by surface plasmon resonance using a BIAcore 2000 (GE Healthcare) to determine the most relevant receptor. An anti-human antibody capture kit was used to immobilize recombinant Eph receptors on a CM5 biosensor chip. Prior to each antigen injection cycle, Eph receptors at the concentration of 2 μg/mL were captured on the surface with a contact time of 2 minutes and a flow rate of 5 μL/min. The captured antibody loading from baseline was constant at 150-260 response units. Following receptor capture and 1 min baseline, monomeric human Ephrin-A4 was flowed over the surface at concentrations of 400, 241, 145, 87, 53, 32, 19 and 12 nM for a 2 minute association phase followed by a 2 minute dissociation phase at a flow rate of 10 μL/min. Following each cycle, the anti-human capture surface was regenerated with 30 seconds contact time of 3M MgCl2 at 10 μL/min.
Biacore data was processed by initially calculating an average of the response at equilibrium (Req). The Req was then plotted versus concentration (M) and the steady state affinity fit was used to calculate the affinity and theoretical Rmax. In all cases, at least 5 different analyte concentrations were used to make this calculation. All data analysis steps were completed in BiaEvaluation Software 3.1 (GE Healthcare).

human EFNA4 = target: T2, human EFNA4; experiment: Biacore affinity of anti-EFNA4 antibodies for EFNA4 antigen; type: binding; conditions: Biacore system
From the text: More particularly murine antibodies E5, E15, E22 and E47 were humanized using a computer-aided CDR-grafting method (Abysis Database, UCL Business Pic.) and standard molecular engineering techniques to generate humanized antibodies E5, E15, E22 and E47, hereinafter huE5, huE15, huE22 and huE47, respectively. The human framework regions of the variable regions were selected based on their highest sequence homology to the mouse framework sequence and its canonical structure. For the purposes of the analysis the assignment of amino acids to each of the CDR domains is in accordance with the Kabat et al. numbering.

Row | Molecule | Kd (human Ephrin-A4) [nM] | rank of affinity for Ephrin-A4 among nine Eph receptors (human Ephrin-A4) | affinity for EFNA4 antigen relative to murine counterpart (human EFNA4)
1 | EphA6 (protein) WPGDCSHVSNNQVVLLDTTTVLGELGWKTYPLNGWDAITEMDEHNRPIHTYQVCNVMEPNQNNWLRTNWISRDAAQKIYVEMKFTLRDCNSIPWVLGTCKETFNLFYMESDESHGIKFKPNQYTKIDTIAADESFTQMDLGDRILKLNTEIREVGPIERKGFYLAFQDIGACIALVSVRVFYKKCPFTVRNLAMFPDTIPRVDSSSLVEVRGSCVKSAEERDTPKLYCGADGDWLVPLGRCICSTGYEEIEGSCHACRPGFYKAFAGNTKCSKCPPHSLTYMEATSVCQCEKGYFRAEKDPPSMACTRPPSAPRNVVFNINETALILEWSPPSDTGGRKDLTYSVICKKCGLDTSQCEDCGGGLRFIPRHTGLINNSVIVLDFVSHVNYTFEIEAMNGVSELSFSPKPFTAITVTTDQDAPSLIGVVRKDWASQNSIALSWQAPAFSNGAILDYEIKYYEKEHEQLTYSSTRSKAPSVIITGLKPATKYVFHIRVRTATGYSGYSQKFEFETGDETSDMAAEQGQILV | 82 | – | –
2 | EphA1 (protein) KEVTLMDTSKAQGELGWLLDPPKDGWSEQQQILNGTPLYMYQDCPMQGRRDTDHWLRSNWIYRGEEASRVHVELQFTVRDCKSFPGGAGPLGCKETFNLLYMESDQDVGIQLRRPLFQKVTTVAADQSFTIRDLVSGSVKLNVERCSLGRLTRRGLYLAFHNPGACVALVSVRVFYQRCPETLNGLAQFPDTLPGPAGLVEVAGTCLPHARASPRPSGAPRMHCSPDGEWLVPVGRCHCEPGYEEGGSGEACVACPSGSYRMDMDTPHCLTCPQQSTAESEGATICTCESGHYRAPGEGPQVACTGPPSAPRNLSFSASGTQLSLRWEPPADTGGRQDVRYSVRCSQCQGTAQDGGPCQPCGVGVHFSPGARGLTTPAVHVNGLEPYANYTFNVEAQNGVSGLGSSGHASTSVSISMGHAESLSGLSLRLVKKEPRQLELTWAGSRPRSPGANLTYELHVLNQDEERYQMVLEPRVLLTELQPDTTYIVRVRMLTPLGPGPFSPDHEFRTSPPVSRGLTGGE | 414 | – | –
3 | EphB2 (protein) VEETLMDSTTATAELGWMVHPPSGWEEVSGYDENMNTIRTYQVCNVFESSQNNWLRTKFIRRRGAHRIHVEMKFSVRDCSSIPSVPGSCKETFNLYYYEADFDSATKTFPNWMENPWVKVDTIAADESFSQVDLGGRVMKINTEVRSFGPVSRSGFYLAFQDYGGCMSLIAVRVFYRKCPRIIQNGAIFQETLSGAESTSLVAARGSCIANAEEVDVPIKLYCNGDGEWLVPIGRCMCKAGFEAVENGTVCRGCPSGTFKANQGDEACTHCPINSRTTSEGATNCVCRNGYYRADLDPLDMPCTTIPSAPQAVISSVNETSLMLEWTPPRDSGGREDLVYNIICKSCGSGRGACTRCGDNVQYAPRQLGLTEPRIYISDLLAHTQYTFEIQAVNGVTDQSPFSPQFASVNITTNQAAPSAVSIMHQVSRTVDSITLSWSQPDQPNGVILDYELQYYEKELSEYNATAIKSPTNTVTVQGLKAGAIYVFQVRARTVAGYGRYSGKMYFQTMTEAEYQTSIQEKLPL | 135 | – | –
4 | EphA10: recombinant Eph receptor captured on biosensor chip (protein) EEVILLDSKASQAELGWTALPSNGWEEISGVDEHDRPIRTYQVCNVLEPNQDNWLQTGWISRGRGQRIFVELQFTLRDCSSIPGAAGTCKETFNVYYLETEADLGRGRPRLGGSRPRKIDTIAADESFTQGDLGERKMKLNTEVREIGPLSRRGFHLAFQDVGACVALVSVRVYYKQCRATVRGLATFPATAAESAFSTLVEVAGTCVAHSEGEPGSPPRMHCGADGEWLVPVGRCSCSAGFQERGDFCEACPPGFYKVSPRRPLCSPCPEHSRALENASTFCVCQDSYARSPTDPPSASCTRPPSAPRDLQYSLSRSPLVLRLRWLPPADSGGRSDVTYSLLCLRCGREGPAGACEPCGPRVAFLPRQAGLRERAATLLHLRPGARYTVRVAALNGVSGPAAAAGTTYAQVTVSTGPGAPWEEDEIRRDRVEPQSVSLSWREPIPAGAPGANDTEYEIRYYEKGQSEQTYSMVKTGAPTVTVTNLKPATRYVFQIRAASPGPSWEAQSFNPSIEVQTLGEAASGSRDQSPA | 431 | lowest affinity | –
5 | EphA3 (protein) ELIPQPSNEVNLLDSKTIQGELGWISYPSHGWEEISGVDEHYTPIRTYQVCNVMDHSQNNWLRTNWVPRNSAQKIYVELKFTLRDCNSIPLVLGTCKETFNLYYMESDDDHGVKFREHQFTKIDTIAADESFTQMDLGDRILKLNTEIREVGPVNKKGFYLAFQDVGACVALVSVRVYFKKCPFTVKNLAMFPDTVPMDSQSLVEVRGSCVNNSKEEDPPRMYCSTEGEWLVPIGKCSCNAGYEERGFMCQACRPGFYKALDGNMKCAKCPPHSSTQEDGSMNCRCENNYFRADKDPPSMACTRPPSSPRNVISNINETSVILDWSWPLDTGGRKDVTFNIICKKCGWNIKQCEPCSPNVRFLPRQFGLTNTTVTVTDLLAHTNYTFEIDAVNGVSELSSPPRQFAAVSITTNQAAPSPVLTIKKDRTSRNSISLSWQEPEHPNGIILDYEVKYYEKQEQETSYTILRARGTNVTISSLKPDTIYVFQIRARTAAGYGTNSRKFEFETSPDSFSISGESSQ | 77 | – | –
6 | EphA7 (protein) QAAKEVLLLDSKAQQTELEWISSPPNGWEEISGLDENYTPIRTYQVCQVMEPNQNNWLRTNWISKGNAQRIFVELKFTLRDCNSLPGVLGTCKETFNLYYYETDYDTGRNIRENLYVKIDTIAADESFTQGDLGERKMKLNTEVREIGPLSKKGFYLAFQDVGACIALVSVKVYYKKCWSIIENLAIFPDTVTGSEFSSLVEVRGTCVSSAEEEAENAPRMHCSAEGEWLVPIGKCICKAGYQQKGDTCEPCGRGFYKSSSQDLQCSRCPTHSFSDKEGSSRCECEDGYYRAPSDPPYVACTRPPSAPQNLIFNINQTTVSLEWSPPADNGGRNDVTYRILCKRCSWEQGECVPCGSNIGYMPQQTGLEDNYVTVMDLLAHANYTFEVEAVNGVSDLSRSQRLFAAVSITTGQAAPSQVSGVMKERVLQRSVELSWQEPEHPNGVITEYEIKYYEKDQRERTYSTVKTKSTSASINNLKPGTVYVFQIRAFTAAGYGNYSPRLDVATLEEATGKMFEATAVSSEQNPV | 86 | – | –

Next, values leading:

Row | Kd (human Ephrin-A4) [nM] | rank of affinity for Ephrin-A4 among nine Eph receptors (human Ephrin-A4) | affinity for EFNA4 antigen relative to murine counterpart (human EFNA4) | Molecule
7 | 31 | highest affinity | – | EphA2: recombinant Eph receptor captured on biosensor chip [reference compound]
8 | – | – | slightly lower affinity | huE5: humanized antibody E5, VH SEQ ID NO: 5, VL SEQ ID NO: 7 (antibody, V domains shown) VH: EVQLVESGGGLVQPGGSLRLSCAASGFTVTTYGVDWVRQAPGKGLEWLGVIWGGGSTNYNSALKSRFTISRDNSKNTLYLQMNSLRAEDTAVYYCASDWAYWGQGTLVTVSS VL: DIQMTQSPSSLSASVGDRVTITCRASQNVGTNVAWFQQKPGKAPKSLIHSASYRYSGVPSRFSGSGSGTDFTLTISSLQPEDFATYYCQQYKRYPYTFGGGTKLEIK
9 | 108 | – | – | EphB3 (protein) GCRALEETLMDTKWVTSELAWTSHPESGWEEVSGYDEAMNPIRTYQVCNVRESSQNNWLRTGFIWRRDVQRVYVELKFTVRDCNSIPNIPGSCKETFNLFYYEADSDVASASSPFWMENPYVKVDTIAPDESFSRLDAGRVNTKVRSFGPLSKAGFYLAFQDQGACMSLISVRAFYKKCASTTAGFALFPETLTGAEPTSLVIAPGTCIPNAVEVSVPLKLYCNGDGEWMVPVGACTCATGHEPAAKESQCRPCPPGSYKAKQGEGPCLPCPPNSRTTSPAASICTCHNNFYRADSDSADSACTTVPSPPRGVISNVNETSLILEWSEPRDLGGRDDLLYNVICKKCHGAGGASACSRCDDNVEFVPRQLGLTERRVHISHLLAHTRYTFEVQAVNGVSGKSPLPPRYAAVNITTNQAAPSEVPTLRLHSSSGSSLTLSWAPPERPNGVILDYEMKYFEKSEGIASTVTSQMNSVQLDGLRPDARYVVQVRARTVAGYGQYSRPAEFETTSERGSGAQQLQEQLPL
